Data taken from patent US20140366224A1 (CONSEJO SUPERIOR DE INVESTIGACIONES CIENTIFICAS, published 2014).
Substitutions are numbered along the chain they refer to. Numbers in names are those of the source. Values belong to the binder of their own block, whether it stands above or below them.

Columns and labels:
[1] = molecular target: T1, IYO fused to split YFP (nYFP or cYFP) (Arabidopsis thaliana, UniProt Q8GYU3 1-1465); assay: BiFC, split YFP in Nicotiana benthamiana leaves
T1 construct: BiFC construct expressed in Nicotiana benthamiana leaf epidermal cells; The position of the YFP half varied between combinations, so the order of the parts is not fixed; also called split YFP fused to IYO; not shown: nYFP or cYFP half of split YFP, fused at the N- or C-terminus (different combinations were used)
T1 sequence: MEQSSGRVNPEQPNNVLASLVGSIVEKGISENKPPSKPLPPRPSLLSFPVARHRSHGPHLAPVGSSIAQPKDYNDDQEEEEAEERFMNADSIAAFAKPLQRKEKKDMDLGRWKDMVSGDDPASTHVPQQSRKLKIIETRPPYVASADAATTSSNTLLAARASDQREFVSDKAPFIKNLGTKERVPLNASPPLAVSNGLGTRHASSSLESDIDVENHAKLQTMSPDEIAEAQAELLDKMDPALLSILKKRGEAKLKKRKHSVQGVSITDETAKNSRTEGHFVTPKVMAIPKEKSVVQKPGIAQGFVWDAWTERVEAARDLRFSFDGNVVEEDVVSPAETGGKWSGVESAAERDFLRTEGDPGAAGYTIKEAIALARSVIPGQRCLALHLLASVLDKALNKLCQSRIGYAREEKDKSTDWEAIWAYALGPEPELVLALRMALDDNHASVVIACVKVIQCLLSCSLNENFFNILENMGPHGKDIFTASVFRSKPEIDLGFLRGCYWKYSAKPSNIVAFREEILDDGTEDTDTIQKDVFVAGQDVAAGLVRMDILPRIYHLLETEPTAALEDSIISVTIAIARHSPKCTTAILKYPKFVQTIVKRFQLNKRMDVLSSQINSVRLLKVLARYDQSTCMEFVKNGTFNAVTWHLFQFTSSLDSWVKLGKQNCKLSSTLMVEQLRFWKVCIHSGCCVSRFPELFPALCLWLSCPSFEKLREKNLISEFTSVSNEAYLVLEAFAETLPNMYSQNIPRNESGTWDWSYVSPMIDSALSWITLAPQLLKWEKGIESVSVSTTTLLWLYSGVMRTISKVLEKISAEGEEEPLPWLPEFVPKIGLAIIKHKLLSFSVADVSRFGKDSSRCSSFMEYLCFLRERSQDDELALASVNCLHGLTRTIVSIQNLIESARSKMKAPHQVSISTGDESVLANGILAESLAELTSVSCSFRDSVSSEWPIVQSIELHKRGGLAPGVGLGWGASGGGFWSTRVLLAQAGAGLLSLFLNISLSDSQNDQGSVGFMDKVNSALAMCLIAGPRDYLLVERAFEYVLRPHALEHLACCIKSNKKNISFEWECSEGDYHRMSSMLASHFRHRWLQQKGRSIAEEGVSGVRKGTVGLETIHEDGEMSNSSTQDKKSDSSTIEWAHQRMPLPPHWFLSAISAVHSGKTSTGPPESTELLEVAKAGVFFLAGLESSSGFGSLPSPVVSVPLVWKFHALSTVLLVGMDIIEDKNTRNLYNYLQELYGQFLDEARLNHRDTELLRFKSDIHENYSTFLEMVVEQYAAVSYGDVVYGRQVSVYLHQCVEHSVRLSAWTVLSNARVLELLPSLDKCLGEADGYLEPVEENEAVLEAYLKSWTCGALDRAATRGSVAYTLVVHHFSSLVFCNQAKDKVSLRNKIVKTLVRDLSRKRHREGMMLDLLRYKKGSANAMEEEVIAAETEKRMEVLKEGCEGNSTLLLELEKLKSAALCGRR
Description: Although the bulk of AtRTR1 is present in the cytosol, we found high levels of nuclear fluorescence reconstitution when split YFP fused to IYO and AtRTR1 was expressed in Nicotiana benthamiana leaves (FIGS. 12-14). This confirms that IYO and AtRTR1 interact physically, and that they do so in the nucleus. […] To test this, Applicants analyzed the subcellular distribution of AtRTR1 in the presence or absence of co-expressed IYO. These experiments confirmed that co-expressed IYO increases the accumulation of AtRTR1 in the nucleus.
(§1) Applicants tested for the in vivo interaction between IYO and AtRTR1 through a bimolecular fluorescence complementation assay in epidermal cells from Nicotiana benthamiana leaves.

[2] = molecular target: T1, IYO fused to split YFP (nYFP or cYFP); assay: BiFC (split YFP) in Nicotiana benthamiana leaf cells
Description: as §1

[3] = molecular target: T1, IYO fused to split YFP (nYFP or cYFP); assay: BiFC context, truncated AtRTR1
Description: as §1

B1: AtRTR1 (At5g26760) full-length, fused to split YFP (nYFP or cYFP) (other)
chain: MAKDNEAIAINDAVHKLQLYMLENTTDQNQLFAARKLMSRSDYEDVVTERAIAKLCGYTLCQRFLPSDVSRRGKYRISLKDHKVYDLQETSKFCSAGCLIDSKTFSGSLQEARTLEFDSVKLNEILDLFGDSLEVKGSLDVNKDLDLSKLMIKENFGVRGEELSLEKWMGPSNAVEGYVPFDRSKSSNDSKATTQSNQEKHEMDFTSTVIMPDVNSVSKLPPQTKQASTVVESVDGKGKTVLKEQTVVPPTKKVSRFRREKEKEKKTFGVDGMGCAQEKTTVLPRKILSFCNEIEKDFKNFGFDEMGLASSAMMSDGYGVEYSVSKQPQCSMEDSLSCKLKGDLQTLDGKNTLSGSSSGSNTKGSKTKPEKSRKKIISVEYHANSYEDGEEILAAESYERHKAQDVCSSSEIVTKSCLKISGSKKLSRSVTWADQNDGRGDLCEVRNNDNAAGPSLSSNDIEDVNSLSRLALAEALATALSQAAEAVSSGNSDASDATAKAGIILLPSTHQLDEEVTEEHSEEEMTEEEPTLLKWPNKPGIPDSDLFDRDQSWFDGPPEGFNLTLSNFAVMWDSLFGWVSSSSLAYIYGKEESAHEEFLLVNGKEYPRRIIMVDGLSSEIKQTIAGCLARALPRVVTHLRLPIAISELEKGLGSLLETMSLTGAVPSFRVKEWLVIVLLFLDALSVSRIPRIAPYISNRDKILEGSGIGNEEYETMKDILLPLGRVPQFATRSGA
notes: Wild-type full-length AtRTR1 in BiFC in Nicotiana benthamiana leaves; The position of the YFP half varied; also called split YFP fused to AtRTR1; not shown: nYFP or cYFP half of split YFP, fused at the N- or C-terminus (different combinations were used)
binding result [1]: binds

B4: C-terminal half of AtRTR1 (aa 305-735) (other, not shown: large carriers)
chain: EMGLASSAMMSDGYGVEYSVSKQPQCSMEDSLSCKLKGDLQTLDGKNTLSGSSSGSNTKGSKTKPEKSRKKIISVEYHANSYEDGEEILAAESYERHKAQDVCSSSEIVTKSCLKISGSKKLSRSVTWADQNDGRGDLCEVRNNDNAAGPSLSSNDIEDVNSLSRLALAEALATALSQAAEAVSSGNSDASDATAKAGIILLPSTHQLDEEVTEEHSEEEMTEEEPTLLKWPNKPGIPDSDLFDRDQSWFDGPPEGFNLTLSNFAVMWDSLFGWVSSSSLAYIYGKEESAHEEFLLVNGKEYPRRIIMVDGLSSEIKQTIAGCLARALPRVVTHLRLPIAISELEKGLGSLLETMSLTGAVPSFRVKEWLVIVLLFLDALSVSRIPRIAPYISNRDKILEGSGIGNEEYETMKDILLPLGRVPQFATRSGA
notes: also called truncated C-terminal half of AtRTR1; C-terminal half of RTR1
binding result [3]: binds

Now from value to binder:

binding result [2]: no binding
B2: full-length AtRTR1 C94A/C98A (other, not shown: large carriers)
chain: B1 chain with C94A, C98A
notes: The putative zinc-coordinating cysteines are substituted by alanine

binding result [2]: no binding
B3: full-length AtRTR1 C56A/C61A (other, not shown: large carriers)
chain: B1 chain with C56A, C61A
notes: as for B2
